Laboratory results published in PMC4932183.
One block for each substance: values may come before it.

Columns and labels:
[1] = target: Avi-tagged follistatin-288, biotinylated (UniProt P19883); assay: BLI; biotinylated Avi-tagged FST-288 immobilised on streptavidin biosensors; analytes in kinetic buffer (PBS, 0.1% bovine serum albumin, 0.02% Tween-20); 600 s association, 600 s dissociation; 30 °C
[2] = target: myostatin mature domain (Homo sapiens) (UniProt O14793); conditions: cited from earlier work
myostatin mature domain (Homo sapiens), sequence (O14793 267-375): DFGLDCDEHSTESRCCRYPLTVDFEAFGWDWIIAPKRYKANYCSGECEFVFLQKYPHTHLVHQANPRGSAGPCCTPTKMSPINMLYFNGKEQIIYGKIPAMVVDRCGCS

[3] = target: activin A mature domain (Homo sapiens) (UniProt P08476); conditions: cited from earlier work
activin A mature domain (Homo sapiens), sequence (P08476 311-426): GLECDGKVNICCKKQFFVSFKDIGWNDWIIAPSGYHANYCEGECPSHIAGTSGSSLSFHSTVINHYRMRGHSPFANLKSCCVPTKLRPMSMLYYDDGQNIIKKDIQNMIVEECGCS

[4] = target: myostatin mature domain mature domain (Homo sapiens) (UniProt O14793); conditions: cited from earlier work
myostatin mature domain mature domain (Homo sapiens), sequence (O14793 267-375): as the sequence (O14793 267-375) above

myostatin pro-domain pro-domain, sequence (O14793 24-266): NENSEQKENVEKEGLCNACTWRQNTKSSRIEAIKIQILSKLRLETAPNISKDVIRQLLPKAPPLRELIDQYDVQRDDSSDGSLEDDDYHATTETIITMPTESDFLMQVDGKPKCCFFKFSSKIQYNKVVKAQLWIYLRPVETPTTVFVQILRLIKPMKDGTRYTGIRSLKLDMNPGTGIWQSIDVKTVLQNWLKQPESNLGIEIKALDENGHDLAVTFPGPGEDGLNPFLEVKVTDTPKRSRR
Avi-tagged follistatin-288, biotinylated, sequence (P19883 30-317): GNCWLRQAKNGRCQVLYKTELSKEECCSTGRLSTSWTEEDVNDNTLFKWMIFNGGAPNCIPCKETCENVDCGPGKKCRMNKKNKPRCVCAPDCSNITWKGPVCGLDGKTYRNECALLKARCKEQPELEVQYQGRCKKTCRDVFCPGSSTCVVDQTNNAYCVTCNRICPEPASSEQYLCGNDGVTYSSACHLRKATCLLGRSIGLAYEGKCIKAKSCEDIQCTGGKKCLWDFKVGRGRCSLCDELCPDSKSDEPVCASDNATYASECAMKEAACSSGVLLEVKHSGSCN
follistatin, sequence (P19883 30-344): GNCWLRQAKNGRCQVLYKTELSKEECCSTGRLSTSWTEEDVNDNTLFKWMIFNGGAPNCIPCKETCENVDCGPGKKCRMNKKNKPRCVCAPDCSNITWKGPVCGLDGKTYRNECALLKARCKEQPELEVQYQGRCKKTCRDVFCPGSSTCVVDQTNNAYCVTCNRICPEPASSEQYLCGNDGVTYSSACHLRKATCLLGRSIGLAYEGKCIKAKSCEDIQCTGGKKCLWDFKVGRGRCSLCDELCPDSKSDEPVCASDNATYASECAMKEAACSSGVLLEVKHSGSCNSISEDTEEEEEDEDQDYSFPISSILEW
follistatin FST-288, sequence (P19883 30-344): as above

Kd [1]: 0.259 nM
Substance: cleaved pro-activin A complex (pro-mature complex) (from UniProt P08476 311-426)

Substance: follistatin (from UniProt P19883)
Kd [2]: 12.3 nM

Substance: follistatin FST-288 (from UniProt P19883)
Kd [3]: 0.0465 nM

Substance: myostatin pro-domain pro-domain (from UniProt O14793)
Kd [4]: 8.3 nM
